Results as given in patent publication US20180258163A1 (Chugai, published 2018).
Residue numbers refer to the chain shown, from its start. In names and notes the source's numbering stands.

T1: soluble human FcγRIIb (human, UniProt P31994 43-217, limits assumed)
T1 construct: soluble His-tagged form; also called hFcγRIIb
T1 sequence (looked up): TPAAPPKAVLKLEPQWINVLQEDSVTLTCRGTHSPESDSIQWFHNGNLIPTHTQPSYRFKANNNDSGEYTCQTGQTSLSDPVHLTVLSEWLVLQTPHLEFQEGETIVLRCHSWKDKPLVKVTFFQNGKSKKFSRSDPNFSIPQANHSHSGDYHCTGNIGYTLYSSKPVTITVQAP

B1: Ab1H-P929/Ab1L (antibody, human IgG1, kappa, name in EU numbering)
heavy: QVQLVESGGGLVQPGGSLRLSCAASGFTLSNHDMTWVRQAPGKGLEYVSIINTYGNHWYANWASGRFTISRDNSKNTVYLQIDSLRAEDTATYYCARETHHGSSGIDHWGQGTLVTVSSASTKGPSVFPLAPSSKSTSGGTAALGCLVKDYFPEPVTVSWNSGALTSGVHTFPAVLQSSGLYSLSSVVTVPSSSLGTQTYICNVNHKPSNTKVDKKVEPKSCDKTHTCPPCPAPELLGGDSVFLFPPKPKDTLMISRTPEVTCVVVDVSHEDPEVKFNWYVDGVEVHNAKTKRREEQYNATYRVVSVLTVLHQDWLNGKEYKCKVSNKALPAPIEKTISKAKGQPREPQVYTLPPSREEMTKNQVSLTCLVKGFYPSDIAVEWESNGQPENNYKTTPPVLDSDGSFFLYSKLTVDKSRWQQGNVFSCSVMHEALHNHYTQKSLSLSP
light: DIQMTQSPSSVSASVGDRVTITCQASESIYSGLAWYQQKPGQPPKLLIYDHSTLASGVPSRFSGSGSGTEYALTISSLQPEDFATYYCQHADYAHHSDNVFGGGTKVEIKRTVAAPSVFIFPPSDEQLKSGTASVVCLLNNFYPREAKVQWKVDNALQSGNSQESVTEQDSKDSTYSLSSTLTLSKADYEKHKVYACEVTHQGLSSPVTKSFNRGEC
notes: copies: 2 + 2
B2: Ab1H-P931/Ab1L (antibody, human IgG1, kappa, name in EU numbering)
heavy: B1 heavy with N288R, R293P
light: B1 light
notes: copies: 2 + 2
B3: Ab1H-P937/Ab1L (antibody, human IgG1, kappa, name in EU numbering)
heavy: B1 heavy with E274R, R293P
light: B1 light
notes: copies: 2 + 2
B4: Ab1H-P941/Ab1L (antibody, human IgG1, kappa, name in EU numbering)
heavy: B1 heavy with H270R, R293P
light: B1 light
notes: copies: 2 + 2
B5: Ab1H-P930/Ab1L (antibody, human IgG1, kappa, name in EU numbering)
heavy: B1 heavy with A289R, R293P
light: B1 light
notes: copies: 2 + 2
B6: Ab1H-P935/Ab1L (antibody, human IgG1, kappa, name in EU numbering)
heavy: B1 heavy with G283R, R293P
light: B1 light
notes: copies: 2 + 2
B7: Ab1H-P934/Ab1L (antibody, human IgG1, kappa, name in EU numbering)
heavy: B1 heavy with V284R, R293P
light: B1 light
notes: copies: 2 + 2
B8: Ab1H-P938/Ab1L (antibody, human IgG1, kappa, name in EU numbering)
heavy: B1 heavy with P273R, R293P
light: B1 light
notes: copies: 2 + 2
B9: Ab1H-P932/Ab1L (antibody, human IgG1, kappa, name in EU numbering)
heavy: B1 heavy with H287R, R293P
light: B1 light
notes: copies: 2 + 2
B10: Ab1H-P939/Ab1L (antibody, human IgG1, kappa, name in EU numbering)
heavy: B1 heavy with D272R, R293P
light: B1 light
notes: copies: 2 + 2
B11: Ab1H-P940/Ab1L (antibody, human IgG1, kappa, name in EU numbering)
heavy: B1 heavy with E271R, R293P
light: B1 light
notes: copies: 2 + 2
B12: Ab1H/Ab1L018 (antibody, human IgG1, kappa)
heavy: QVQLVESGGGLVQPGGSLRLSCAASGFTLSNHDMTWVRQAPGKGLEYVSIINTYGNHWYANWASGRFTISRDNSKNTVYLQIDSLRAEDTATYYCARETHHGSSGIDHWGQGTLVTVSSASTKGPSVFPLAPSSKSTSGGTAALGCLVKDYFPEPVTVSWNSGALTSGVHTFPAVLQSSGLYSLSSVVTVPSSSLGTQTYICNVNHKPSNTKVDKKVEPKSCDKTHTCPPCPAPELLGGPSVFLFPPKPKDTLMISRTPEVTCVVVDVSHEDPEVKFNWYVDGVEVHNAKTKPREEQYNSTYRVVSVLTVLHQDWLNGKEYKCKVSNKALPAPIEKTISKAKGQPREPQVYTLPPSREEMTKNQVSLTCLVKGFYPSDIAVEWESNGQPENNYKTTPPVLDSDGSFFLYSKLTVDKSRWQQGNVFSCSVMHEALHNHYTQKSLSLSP
light: B1 light with Q24R, E27R, L46R, Y49K
notes: copies: 2 + 2
B13: Ab1H/Ab1L005 (antibody, human IgG1, kappa)
heavy: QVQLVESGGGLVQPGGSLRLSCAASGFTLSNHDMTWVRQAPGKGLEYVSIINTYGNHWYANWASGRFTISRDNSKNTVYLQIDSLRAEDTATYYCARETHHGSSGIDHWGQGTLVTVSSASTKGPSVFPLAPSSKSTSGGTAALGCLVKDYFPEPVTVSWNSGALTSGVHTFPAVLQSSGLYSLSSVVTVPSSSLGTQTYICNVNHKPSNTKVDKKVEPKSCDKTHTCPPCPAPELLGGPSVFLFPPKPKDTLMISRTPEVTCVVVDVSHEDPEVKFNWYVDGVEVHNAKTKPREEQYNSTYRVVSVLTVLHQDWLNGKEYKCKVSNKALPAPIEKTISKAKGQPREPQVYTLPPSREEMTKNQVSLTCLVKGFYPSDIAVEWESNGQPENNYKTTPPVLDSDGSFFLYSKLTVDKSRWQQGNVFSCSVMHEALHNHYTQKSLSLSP
light: B1 light with A25K, S26K
notes: '526K' read as S26K; copies: 2 + 2
B14: Ab1H/Ab1L006 (antibody, human IgG1, kappa)
heavy: not shown
light: B1 light with A25R, S26R
notes: copies: 2 + 2
B15: Ab1H/Ab1L012 (antibody, human IgG1, kappa)
heavy: not shown
light: B1 light with S65R, T69R
notes: copies: 2 + 2
B16: Ab1H/Ab1L017 (antibody, human IgG1, kappa)
heavy: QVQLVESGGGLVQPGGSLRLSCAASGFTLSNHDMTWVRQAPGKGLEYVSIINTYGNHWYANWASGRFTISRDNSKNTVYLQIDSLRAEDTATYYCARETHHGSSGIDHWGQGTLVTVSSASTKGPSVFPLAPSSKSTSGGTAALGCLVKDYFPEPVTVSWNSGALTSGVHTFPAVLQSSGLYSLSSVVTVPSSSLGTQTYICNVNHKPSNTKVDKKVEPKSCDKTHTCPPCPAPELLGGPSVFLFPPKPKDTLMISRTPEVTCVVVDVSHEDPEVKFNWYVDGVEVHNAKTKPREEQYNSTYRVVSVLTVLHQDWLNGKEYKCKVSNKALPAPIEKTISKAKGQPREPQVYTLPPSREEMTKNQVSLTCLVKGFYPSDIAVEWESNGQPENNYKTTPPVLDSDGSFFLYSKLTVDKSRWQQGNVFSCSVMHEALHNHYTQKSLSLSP
light: B1 light with Q24R, E27R, G41R, Q42K
notes: copies: 2 + 2
B17: Ab1H/Ab1L008 (antibody, human IgG1, kappa)
heavy: not shown
light: B1 light with G41R, Q42K
notes: copies: 2 + 2
B18: Ab1H/Ab1L011 (antibody, human IgG1, kappa)
heavy: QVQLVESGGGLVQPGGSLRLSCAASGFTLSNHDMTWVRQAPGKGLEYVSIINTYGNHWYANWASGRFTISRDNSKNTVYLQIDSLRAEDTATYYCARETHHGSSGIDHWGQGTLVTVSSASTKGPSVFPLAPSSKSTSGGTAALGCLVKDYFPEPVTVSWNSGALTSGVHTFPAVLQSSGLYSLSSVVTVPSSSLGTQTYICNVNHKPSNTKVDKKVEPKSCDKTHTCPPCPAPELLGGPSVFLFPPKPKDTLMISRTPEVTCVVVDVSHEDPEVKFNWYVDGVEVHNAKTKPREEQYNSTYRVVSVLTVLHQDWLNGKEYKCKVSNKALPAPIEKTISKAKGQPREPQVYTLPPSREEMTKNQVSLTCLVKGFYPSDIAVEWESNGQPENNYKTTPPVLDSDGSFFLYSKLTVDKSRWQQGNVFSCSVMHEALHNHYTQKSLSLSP
light: B1 light with S52K, S56K
notes: copies: 2 + 2
B19: Ab1H/Ab1L001 (antibody, human IgG1, kappa)
heavy: not shown
light: B1 light with G16K
notes: light chain = Ab1L with G16K (Kabat); also called Ab1L001T; copies: 2 + 2
B20: Ab1H/Ab1L003 (antibody, human IgG1, kappa)
heavy: not shown
light: B1 light with Q24R, E27R
notes: copies: 2 + 2
B21: Ab1H/Ab1L016 (antibody, human IgG1, kappa)
heavy: not shown
light: B1 light with Q24R, E27R, Q37R
notes: copies: 2 + 2
B22: Ab1H/Ab1L007 (antibody, human IgG1, kappa)
heavy: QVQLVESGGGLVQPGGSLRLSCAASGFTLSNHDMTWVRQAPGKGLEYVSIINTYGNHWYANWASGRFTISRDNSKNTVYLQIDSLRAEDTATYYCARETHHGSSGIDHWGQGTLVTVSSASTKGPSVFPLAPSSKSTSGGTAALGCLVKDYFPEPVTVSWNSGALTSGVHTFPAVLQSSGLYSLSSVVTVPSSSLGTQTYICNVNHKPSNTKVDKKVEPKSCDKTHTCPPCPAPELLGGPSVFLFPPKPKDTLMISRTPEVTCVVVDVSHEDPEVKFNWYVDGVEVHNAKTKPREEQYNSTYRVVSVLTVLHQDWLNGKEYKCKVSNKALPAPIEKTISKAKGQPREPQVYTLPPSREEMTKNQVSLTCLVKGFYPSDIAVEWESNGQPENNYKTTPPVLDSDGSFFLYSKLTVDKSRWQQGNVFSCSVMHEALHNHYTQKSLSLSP
light: B1 light with Q37R
notes: copies: 2 + 2
B23: Ab1H/Ab1L014 (antibody, human IgG1, kappa)
heavy: not shown
light: B1 light with S76R, Q79K
notes: copies: 2 + 2
B24: Ab1H/Ab1L013 (antibody, human IgG1, kappa)
heavy: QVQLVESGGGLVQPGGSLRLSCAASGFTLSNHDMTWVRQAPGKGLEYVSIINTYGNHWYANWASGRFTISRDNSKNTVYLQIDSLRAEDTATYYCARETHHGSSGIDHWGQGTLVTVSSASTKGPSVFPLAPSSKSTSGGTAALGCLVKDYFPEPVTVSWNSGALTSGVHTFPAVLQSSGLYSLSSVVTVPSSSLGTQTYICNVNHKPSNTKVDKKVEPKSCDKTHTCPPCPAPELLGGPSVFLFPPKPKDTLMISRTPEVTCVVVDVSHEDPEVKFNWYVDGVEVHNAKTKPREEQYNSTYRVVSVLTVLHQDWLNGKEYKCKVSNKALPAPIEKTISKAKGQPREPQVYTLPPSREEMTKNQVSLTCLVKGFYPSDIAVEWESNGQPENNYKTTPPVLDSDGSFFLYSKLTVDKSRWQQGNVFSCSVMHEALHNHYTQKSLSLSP
light: B1 light with T74K, S77R
notes: copies: 2 + 2
B25: Ab1H/Ab1L009 (antibody, human IgG1, kappa)
heavy: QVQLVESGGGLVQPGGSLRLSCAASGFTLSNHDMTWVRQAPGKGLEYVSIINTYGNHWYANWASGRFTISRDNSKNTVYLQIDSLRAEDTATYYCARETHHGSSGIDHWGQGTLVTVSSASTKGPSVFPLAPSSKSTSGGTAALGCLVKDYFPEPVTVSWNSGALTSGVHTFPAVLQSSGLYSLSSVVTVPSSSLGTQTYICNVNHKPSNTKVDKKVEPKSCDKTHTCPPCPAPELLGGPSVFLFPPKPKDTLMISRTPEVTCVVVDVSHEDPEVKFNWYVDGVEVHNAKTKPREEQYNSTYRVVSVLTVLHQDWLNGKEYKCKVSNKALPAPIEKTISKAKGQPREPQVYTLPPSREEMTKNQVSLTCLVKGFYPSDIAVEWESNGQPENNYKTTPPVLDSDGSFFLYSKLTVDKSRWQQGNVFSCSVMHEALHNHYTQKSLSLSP
light: B1 light with L46R, Y49K
notes: copies: 2 + 2
B26: Ab1H/Ab1L019 (antibody, human IgG1, kappa)
heavy: not shown
light: B1 light with Q24R, E27R, S52R, S56R
notes: copies: 2 + 2
B27: Ab1H/Ab1L002 (antibody, human IgG1, kappa)
heavy: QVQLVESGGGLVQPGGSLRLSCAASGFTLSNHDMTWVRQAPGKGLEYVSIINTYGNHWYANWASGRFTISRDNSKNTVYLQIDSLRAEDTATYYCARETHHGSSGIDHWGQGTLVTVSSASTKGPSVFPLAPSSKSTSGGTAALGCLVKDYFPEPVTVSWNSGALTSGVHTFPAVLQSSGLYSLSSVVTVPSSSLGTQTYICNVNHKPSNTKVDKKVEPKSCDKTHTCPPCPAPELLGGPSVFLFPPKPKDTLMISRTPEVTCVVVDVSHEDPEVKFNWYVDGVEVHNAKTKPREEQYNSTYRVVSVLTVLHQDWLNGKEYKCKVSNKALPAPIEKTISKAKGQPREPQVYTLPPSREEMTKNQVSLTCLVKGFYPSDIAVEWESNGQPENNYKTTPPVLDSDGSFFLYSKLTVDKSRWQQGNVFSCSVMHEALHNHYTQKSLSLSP
light: B1 light with Q24R, E27Q
notes: copies: 2 + 2
B28: Ab1H/Ab1L020 (antibody, human IgG1, kappa)
heavy: not shown
light: B1 light with Q24R, E27R, S52K, S56K
notes: copies: 2 + 2
B29: Ab1H/Ab1L021 (antibody, human IgG1, kappa)
heavy: not shown
light: B1 light with Q24R, E27R, S65R, T69R
notes: '169R' read as T69R; copies: 2 + 2
B30: Ab1H/Ab1L023 (antibody, human IgG1, kappa)
heavy: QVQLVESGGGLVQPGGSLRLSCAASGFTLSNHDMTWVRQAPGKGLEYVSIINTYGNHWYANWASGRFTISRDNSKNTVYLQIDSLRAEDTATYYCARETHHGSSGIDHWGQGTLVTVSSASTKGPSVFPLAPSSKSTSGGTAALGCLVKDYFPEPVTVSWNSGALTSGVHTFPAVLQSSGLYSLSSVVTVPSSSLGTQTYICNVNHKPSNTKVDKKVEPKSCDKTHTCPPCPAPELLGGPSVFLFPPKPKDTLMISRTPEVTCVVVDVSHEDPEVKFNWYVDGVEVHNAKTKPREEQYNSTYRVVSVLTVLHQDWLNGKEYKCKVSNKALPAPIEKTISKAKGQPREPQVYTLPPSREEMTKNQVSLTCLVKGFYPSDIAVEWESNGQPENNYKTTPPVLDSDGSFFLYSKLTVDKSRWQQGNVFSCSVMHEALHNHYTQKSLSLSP
light: B1 light with Q24R, E27R, S76R, Q79K
notes: copies: 2 + 2
B31: Ab1H/Ab1L022 (antibody, human IgG1, kappa)
heavy: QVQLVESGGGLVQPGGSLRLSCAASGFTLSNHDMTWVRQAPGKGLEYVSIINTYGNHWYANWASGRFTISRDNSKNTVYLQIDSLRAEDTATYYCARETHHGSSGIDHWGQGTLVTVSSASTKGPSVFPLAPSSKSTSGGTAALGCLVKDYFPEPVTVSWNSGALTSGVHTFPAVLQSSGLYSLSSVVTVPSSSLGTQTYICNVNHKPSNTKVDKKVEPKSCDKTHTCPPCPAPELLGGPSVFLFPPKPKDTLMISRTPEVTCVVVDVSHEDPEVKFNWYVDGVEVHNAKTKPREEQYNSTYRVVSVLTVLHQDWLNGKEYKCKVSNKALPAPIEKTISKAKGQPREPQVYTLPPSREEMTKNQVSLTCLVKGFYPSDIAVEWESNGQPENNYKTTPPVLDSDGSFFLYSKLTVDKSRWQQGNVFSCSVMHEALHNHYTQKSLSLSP
light: B1 light with Q24R, E27R, T74K, S77R
notes: copies: 2 + 2
B32: Ab1H/Ab1L010 (antibody, human IgG1, kappa)
heavy: not shown
light: B1 light with S52R, S56R
notes: copies: 2 + 2
B33: Ab1H/Ab1L004 (antibody, human IgG1, kappa)
heavy: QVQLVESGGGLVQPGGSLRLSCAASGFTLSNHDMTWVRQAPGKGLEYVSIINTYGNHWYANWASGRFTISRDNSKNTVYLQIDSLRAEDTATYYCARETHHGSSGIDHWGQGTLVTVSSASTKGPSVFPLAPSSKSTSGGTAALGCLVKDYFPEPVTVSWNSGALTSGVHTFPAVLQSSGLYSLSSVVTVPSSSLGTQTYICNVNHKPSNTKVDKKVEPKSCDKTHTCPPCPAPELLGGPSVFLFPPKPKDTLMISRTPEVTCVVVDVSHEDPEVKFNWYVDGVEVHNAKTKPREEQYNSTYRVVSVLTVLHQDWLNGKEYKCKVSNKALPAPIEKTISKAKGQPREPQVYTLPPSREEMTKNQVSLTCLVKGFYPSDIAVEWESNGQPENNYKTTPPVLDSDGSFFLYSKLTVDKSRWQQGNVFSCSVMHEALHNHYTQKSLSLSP
light: B1 light with Q24K, E27K
notes: copies: 2 + 2
B34: Ab1H/Ab1L015 (antibody, human IgG1, kappa)
heavy: not shown
light: B1 light with G16K, Q24R, E27R
notes: copies: 2 + 2

biological target: T1, soluble human FcγRIIb; experiment: SPR, Ab-IgE complex over captured hFcγRIIb, pH 7.4, 25C
Procedure: Fc region variant-containing antibody binding assays between soluble human FcγRIIb (a.k.a. “hFcγRIIb”) and antigen-antibody complexes were performed using BIACORE® T200 (GE Healthcare). Soluble hFcγRIIb was produced in the form of a His-tagged molecule using methods known in the art. An appropriate amount of an anti-His antibody was fixed onto Sensor chip CM5 (GE Healthcare) by the amine coupling method using a His capture kit (GE Healthcare) to capture hFcγRIIb. Next, an antibody-antigen complex and a running buffer (as a reference solution) was injected, and interaction was allowed to take place with the hFcγRIIb captured onto the sensor chip. 20 mM N-(2-Acetamido)-2-aminoethanesulfonic acid, 150 mM NaCl, 1.2 mM CaCl₂, and 0.05% (w/v) Tween 20 at pH 7.4 was used as the running buffer, and the respective buffer was also used to dilute the soluble hFcγRIIb. To regenerate the sensor chip, 10 mM glycine-HCl at pH 1.5 was used. All measurements were carried out at 25° C. Analyses were performed based on binding (RU) calculated from sensorgrains obtained by the measurements, and relative values when the binding amount of P600 was defined as 1.00 are shown. To calculate the parameters, the BIACORE® T100 Evaluation Software (GE Healthcare) was used.

| relative binding (RU), P600=1.00 | Binder |
| --- | --- |
| 0.47 fold | B1 |
| 0.68 fold | B2 |
| 0.21 fold | B3 |
| 0.47 fold | B4 |
| -0.07 fold | B5 |
| -0.06 fold | B6 |
| 1.54 fold | B7 |
| -0.06 fold | B8 |
| 1.38 fold | B9 |
| -0.07 fold | B10 |
| -0.05 fold | B11 |

biological target: T1, soluble human FcγRIIb; experiment: as above; remark: another data set of the same source
Procedure: Regarding the produced Fc region variant-containing antibodies, binding assays between soluble human FcγRIIb and antigen-antibody complexes were performed using BIACORE T200 (GE Healthcare). Soluble human FcγRIIb (NCBI accession NM_004001.3) was produced in the form of a His-tagged molecule by a method known in the art. An appropriate amount of an anti-His antibody was fixed onto Sensor chip CM5 (GE Healthcare) by the amine coupling method using a His capture kit (GE Healthcare) to capture human FcγRIIb. Next, an antibody-antigen complex and a running buffer (as a reference solution) were injected, and interaction was allowed to take place with the human FcγRIIb captured onto the sensor chip. 20 mM N-(2-Acetamido)-2-aminoethanesulfonic acid, 150 mM NaCl, 1.2 mM CaCl₂, and 0.05% (w/v) Tween 20 at pH 7.4 was used as the running buffer, and the respective buffer was also used to dilute the soluble human FcγRIIb. To regenerate the sensor chip, 10 mM glycine-HCl at pH 1.5 was used. All measurements were carried out at 25° C. Analyses were performed based on binding (RU) calculated from sensorgrams obtained by the measurements, and relative values when the binding amount of Ab1H/Ab1L (original Ab1) was defined as 1.00 are shown. To calculate the parameters, the BIACORE T100 Evaluation Software (GE Healthcare) was used.

| BIACORE fold (relative binding, original Ab1=1.00) | Binder |
| --- | --- |
| 0.07 fold | B12 |
| 0.84 fold | B13 |
| 1.18 fold | B14 |
| 0.97 fold | B15 |
| 1.27 fold | B16 |
| 1.07 fold | B17 |
| 1.02 fold | B18 |
| 1.03 fold | B19 |
| 1.09 fold | B20 |
| 1.36 fold | B21 |
| 1.06 fold | B22 |
| 1.08 fold | B23 |
| 1.7 fold | B24 |
| -0.02 fold | B25 |
| 1.17 fold | B26 |
| 1.03 fold | B27 |
| 1.22 fold | B28 |
| 1.36 fold | B29 |
| 1.39 fold | B30 |
| 1.45 fold | B31 |
| 0.98 fold | B32 |
| 1.01 fold | B33 |
| 1.25 fold | B34 |
